From patent publication US20230265179A1 (TWIST BIOSCIENCE, published 2023) come the findings set out here.

T1: CD40L (UniProt P29965 1-261, limits assumed)
T1 construct: whole, on cells; also called cytokine over-expressing Expi293 cells (CD40L)
T1 sequence (looked up): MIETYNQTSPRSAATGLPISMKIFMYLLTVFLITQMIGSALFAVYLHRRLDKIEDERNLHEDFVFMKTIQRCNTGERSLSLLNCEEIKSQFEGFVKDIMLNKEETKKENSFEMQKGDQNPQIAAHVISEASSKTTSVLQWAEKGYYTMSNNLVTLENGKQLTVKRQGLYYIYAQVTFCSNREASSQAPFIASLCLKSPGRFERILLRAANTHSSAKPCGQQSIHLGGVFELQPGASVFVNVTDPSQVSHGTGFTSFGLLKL

B1: CD40L-344 (antibody, V domains shown)
VH: EVQLLESGGGLVQPGGSLRLSCAASGFTFSKYAMNWVRQAPGKGLEWVSAISGSGESTYYADSVKGRFTISRDNSKNTLYLQMNSLRAEDTAVYYCARAHDYDSMLMDYWGQGTLVTVSS
VL: DIQMTQSPSSLSASVGDRVTITCRASESITTYLNWYQQKPGKAPKLLIYTASGLQSGVPSRFSGSGSGTDFTLTISSLQPEDFATYYCQQSYTVPITFGQGTKVEIK
B2: CD40L-359 (antibody, V domains shown)
VH: EVQLLESGGGLVQPGGSLRLSCAASGYTFSSYAMSWVRQAPGKGLEWVSGISGGGTSTYYADSVKGRFTISRDNSKNTLYLQMNSLRAEDTAVYYCARFGNHYDRTGYSDYWGQGTLVTVSS
VL: DIQMTQSPSSLSASVGDRVTITCRASQNIGGYLNWYQQKPGKAPKLLIYGASRLQSGVPSRFSGSGSGTDFTLTISSLQPEDFATYYCQQSYSTPFTFGGGTKVEIK
B3: CD40L-341 (antibody, V domains shown)
VH: EVQLLESGGGLVQPGGSLRLSCAASGFTFRSYAMTWVRQAPGKGLEWVSAISGSGDRTYYGDSVKGRFTISRDNSKNTLYLQMNSLRAEDTAVYYCARIARSEDFWSGYYTDFDFDYWGQGTLVTVSS
VL: DIQMTQSPSSLSASVGDRVTITCRASQSISTYLNWYQQKPGKAPKLLIYRASTLQSGVPSRFSGSGSGTDFTLTISSLQPEDFATYYCQQSYSNPPTFGQGTKVEIK
B4: CD40L-339 (antibody, V domains shown)
VH: EVQLLESGGGLVQPGGSLRLSCAASGFTFSNYAMSWVRQAPGKGLEWVSAITGSGSTTYYADSVKGRFTISRDNSKNTLYLQMNSLRAEDTAVYYCARAHDYDSMLMDYWGQGTLVTVSS
VL: DIQMTQSPSSLSASVGDRVTITCRASQSIGTFLNWYQQKPGKAPKLLIYGTSNLQSGVPSRFSGSGSGTDFTLTISSLQPEDFATYYCQQGYRTPLTFGQGTKVEIK
B5: CD40L-358 (antibody, V domains shown)
VH: EVQLLESGGGLVQPGGSLRLSCAASGFTFSTYAMNWVRQAPGKGLEWVSAISGSGGTTYYADSVKGRFTISRDNSKNTLYLQMNSLRAEDTAVYYCARGPNNWNYVSFDYWGQGTLVTVSS
VL: DIQMTQSPSSLSASVGDRVTITCRASQYIGTYLNWYQQKPGKAPKLLIYAAANLQSGVPSRFSGSGSGTDFTLTISSLQPEDFATYYCQQSYSIPLTFGGGTKVEIK
B6: CD40L-347 (antibody, V domains shown)
VH: EVQLLESGGGLVQPGGSLRLSCAASGFTFSNYAMSWVRQAPGKGLEWVSAITGSGSTTYYADSVKGRFTISRDNSKNTLYLQMNSLRAEDTAVYYCARAHDYDSMLMDYWGQGTLVTVSS
VL: DIQMTQSPSSLSASVGDRVTITCRASQSIGTFLNWYQQKPGKAPKLLIYGTSNLQSGVPSRFSGSGSGTDFTLTISSLQPEDFATYYCQQGYRTPLTFGGGTKVEIK
B7: CD40L-378 (antibody, V domains shown)
VH: EVQLLESGGGLVQPGGSLRLSCAASGFTFRSYAMTWVRQAPGKGLEWVSAISGSGDRTYYGDSVKGRFTISRDNSKNTLYLQMNSLRAEDTAVYYCARIARSEDFWSGYYTDFDFDYWGQGTLVTVSS
VL: DIQMTQSPSSLSASVGDRVTITCRASQSISTYLNWYQQKPGKAPKLLIYRASTLQSGVPSRFSGSGSGTDFTLTISSLQPEDFATYYCQQSYSNPPTFGGGTKVEIK
B8: CD40L-338 (antibody, V domains shown)
VH: EVQLLESGGGLVQPGGSLRLSCAASGFTFGSFAMNWVRQAPGKGLEWVSAITGGGGSTYYADSVKGRFTISRDNSKNTLYLQMNSLRAEDTAVYYCAHGLAWRWGFDYWGQGTLVTVSS
VL: DIQMTQSPSSLSASVGDRVTITCRASQNIDRYLNWYQQKPGKAPKLLIYAASALQSGVPSRFSGSGSGTDFTLTISSLQPEDFATYYCQQSYSILPVTFGQGTKVEIK
B9: CD40L-379 (antibody, V domains shown)
VH: EVQLLESGGGLVQPGGSLRLSCAASGFTFGSFAMNWVRQAPGKGLEWVSAITGGGGSTYYADSVKGRFTISRDNSKNTLYLQMNSLRAEDTAVYYCAHGLAWRWGFDYWGQGTLVTVSS
VL: DIQMTQSPSSLSASVGDRVTITCRASQNIDRYLNWYQQKPGKAPKLLIYAASALQSGVPSRFSGSGSGTDFTLTISSLQPEDFATYYCQQSYSILPVTFGGGTKVEIK
B10: CD40L-355 (antibody, V domains shown)
VH: EVQLLESGGGLVQPGGSLRLSCAASGFIFSNYDMSWVRQAPGKGLEWVSGISGSGGSTSYADSVKGRFTISRDNSKNTLYLQMNSLRAEDTAVYYCARHGGYNPYGLDYWGQGTLVTVSS
VL: DIQMTQSPFSLSASVGDRVTITCRASQNILTYLNWYQQKPGKAPKLLIYGASTLRSGVPSRFSGSGSGTDFTLTISSLQPEDFATYYCQQSYRLPLTFGGGTKVEIK
B11: CD40L-340 (antibody, V domains shown)
VH: EVQLLESGGGLVQPGGSLRLSCAASGFGFSSYAMSWVRQAPGKGLEWVSAISGGGGSIYYADSVKGRFTISRDNSKNTLYLQMNSLRAEDTAVYYCATDYGDYDRLNFDLWGQGTLVTVSS
VL: DIQMTQSPSSLSASVGDRVTITCRASQSVSRFLNWYQQKPGKAPKLLIYAASTLQPGVPSRFSGSGSGTDFTLTISSLQPEDFATYYCQQSYETPLTFGQGTKVEIK
B12: CD40L-349 (antibody, V domains shown)
VH: EVQLLESGGGLVQPGGSLRLSCAASGFGFSSYAMSWVRQAPGKGLEWVSAISGGGGSIYYADSVKGRFTISRDNSKNTLYLQMNSLRAEDTAVYYCATDYGDYDRLNFDLWGQGTLVTVSS
VL: DIQMTQSPSSLSASVGDRVTITCRASQTIGSYLNWYQQKPGKAPKLLIYAASTLQPGVPSRFSGSGSGTDFTLTISSLQPEDFATYYCQQSYETPLTFGGGTKVEIK
B13: CD40L-437 (antibody, V domains shown)
VH: EVQLLESGGGLVQPGGSLRLSCAASGFSFSSYAMAWVRQAPGKGLEWVSSISGSGGGGNTYYADSVKGRFTISRDNSKNTLYLQMNSLRAEDTAVYYCARHHERDYYGMDVWGQGTLVTVSS
VL: DIQMTQSPSSLSASVGDRVTITCRASQTISNFLNWYQQKPGKAPKLLIYAASTLQYGVPSRFSGSGSGTDFTLTISSLQPEDFATYYCQQTYSFPLTFGGGTKVEIK
B14: CD40L-348 (antibody, V domains shown)
VH: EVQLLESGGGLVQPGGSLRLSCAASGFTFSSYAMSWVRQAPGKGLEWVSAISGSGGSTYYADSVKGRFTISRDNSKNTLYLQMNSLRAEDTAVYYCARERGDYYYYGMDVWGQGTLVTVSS
VL: DIQMTQSPSSLSASVGDRVTITCRASQTISNFLNWYQQKPGKAPKLLIYAASTLQYGVPSRFSGSGSGTDFTLTISSLQPEDFATYYCQQNYRSPLTFGGGTKVEIK
B15: CD40L-360 (antibody, V domains shown)
VH: EVQLLESGGGLVQPGGSLRLSCAASGFTFGRYAMSWVRQAPGKGLEWVSDISGSGGSTYYADSVKGRFTISRDNSKNTLYLQMNSLRAEDTAVYYCARDGFRWGRAEYFQHWGQGTLVTVSS
VL: DIQMTQSPSSLSASVGDRVTITCRASQTISSYLSWYQQKPGKAPKLLIYDASTLQSGVPSRFSGSGSGTDFTLTISSLQPEDFATYYCQQSYRIPLTFGGGTKVEIK
B16: CD40L-396 (antibody, V domains shown)
VH: EVQLLESGGGLVQPGGSLRLSCAASGFSFSSYAMAWVRQAPGKGLEWVSSISGSGGGGNTYYADSVKGRFTISRDNSKNTLYLQMNSLRAEDTAVYYCARHHERDYYGMDVWGQGTLVTVSS
VL: DIQMTQSPSSLSASVGDRVTITCRASQRISRYLNWYQQKPGKAPKLLIYRASTLQSGVPSRFSGSGSGTDFTLTISSLQPEDFATYYCQQSHSSPLTFGGGTKVEIK
B17: CD40L-354 (antibody, V domains shown)
VH: EVQLLESGGGLVQPGGSLRLSCAASGFSFSSYAMAWVRQAPGKGLEWVSSISGSGGGGNTYYADSVKGRFTISRDNSKNTLYLQMNSLRAEDTAVYYCARHHERDYYGMDVWGQGTLVTVSS
VL: DIQMTQSPSSLSASVGDRVTITCRASQSIGEYLNWYQQKPGKAPKLLIYSASSLQNGVPSRFSGSGSGTDFTLTISSLQPEDFATYYCQQTYSFPLTFGGGTKVEIK
B18: CD40L-429 (antibody, V domains shown)
VH: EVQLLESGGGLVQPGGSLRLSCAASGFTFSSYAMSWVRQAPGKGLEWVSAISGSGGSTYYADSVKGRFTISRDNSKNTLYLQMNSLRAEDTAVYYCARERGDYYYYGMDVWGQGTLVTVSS
VL: DIQMTQSPSSLSASVGDRVTITCRASQTISYYLNWYQQKPGKAPKLLIYDATSLQSGVPSRFSGSGSGTDFTLTISSLQPEDFATYYCQQTYSLPLTFGGGTKVEIK
B19: CD40L-345 (antibody, V domains shown)
VH: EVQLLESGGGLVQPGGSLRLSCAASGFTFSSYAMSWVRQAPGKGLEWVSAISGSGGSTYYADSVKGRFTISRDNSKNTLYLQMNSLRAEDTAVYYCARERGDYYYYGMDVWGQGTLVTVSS
VL: DIQMTQSPSSLSASVGDRVTITCRASQTISNFLNWYQQKPGKAPKLLIYAASTLQYGVPSRFSGSGSGTDFTLTISSLQPEDFATYYCQQNYRSPLTFGQGTKVEIK
B20: CD40L-386 (antibody, V domains shown)
VH: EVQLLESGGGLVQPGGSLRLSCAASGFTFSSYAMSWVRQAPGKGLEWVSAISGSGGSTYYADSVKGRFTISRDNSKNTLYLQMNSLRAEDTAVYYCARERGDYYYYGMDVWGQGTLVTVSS
VL: DIQMTQSPSSLSASVGDRVTITCRASESITTYLNWYQQKPGKAPKLLIYTASGLQSGVPSRFSGSGSGTDFTLTISSLQPEDFATYYCQQSYTVPITFGGGTKVEIK
B21: CD40L-418 (antibody, V domains shown)
VH: EVQLLESGGGLVQPGGSLRLSCAASGFTFGRYAMSWVRQAPGKGLEWVSDISGSGGSTYYADSVKGRFTISRDNSKNTLYLQMNSLRAEDTAVYYCARDGFRWGRAEYFQHWGQGTLVTVSS
VL: DIQMTQSPSSLSASVGDRVTITCRASESITTYLNWYQQKPGKAPKLLIYTASGLQSGVPSRFSGSGSGTDFTLTISSLQPEDFATYYCQQSYTVPITFGGGTKVEIK
B22: CD40L-350 (antibody, V domains shown)
VH: EVQLLESGGGLVQPGGSLRLSCAASGLTFGSYAMSWVRQAPGKGLEWVSAISGSVGSTYYADSVKGRFTISRDNSKNTLYLQMNSLRAEDTAVYYCARHGGYYYYYMDVWGQGTLVTVSS
VL: DIQMTQSPSSLSASVGDRVTITCRASQSISSYVSWYQQKPGKAPKLLIYDASSLSGGVPSRFSGSGSGTDFTLTISSLQPEDFATYYCQQSYRIPLTFGGGTKVEIK

The target of the test is T1, CD40L. The test can be described thus: flow cytometry, 100 nM IgG, CD40L over-expressing Expi293 cells over parent Expi293 cells.
Method: All incubations and washes were in buffer containing PBS+1% BSA. MFI Ratio is defined by the mean fluorescence intensity (MFI) of the cytokine over-expressing Expi293 cell over the Expi293 parent cell. […] EC50 was calculated in GraphPad Prism.
For B1, the “100 nM FACS (MFI Ratio)” value is 4.9 MFI ratio.
The value for B2 was 5.1 MFI ratio; that for B3 was 125 MFI ratio; that for B4 was 56.6 MFI ratio.
For B5, the “100 nM FACS (MFI Ratio)” value came to 4.2 MFI ratio.
The result for B6 reads 11.6 MFI ratio; that for B7, 8.1 MFI ratio; that for B8, 34.3 MFI ratio.
The result for B9 reads 71.2 MFI ratio; that for B10, 7.6 MFI ratio.
The result for B11 reads 61.5 MFI ratio; that for B12, 5.8 MFI ratio.
As to B13, the “100 nM FACS (MFI Ratio)” value is 4.3 MFI ratio.
The result for B14 reads 6.2 MFI ratio; that for B15, 15.4 MFI ratio.
As for B16, the “100 nM FACS (MFI Ratio)” value is 6.2 MFI ratio.
The value for B17 was 6.9 MFI ratio.
The result for B18 reads 5 MFI ratio; that for B19, 7.7 MFI ratio.
Take B20: the “100 nM FACS (MFI Ratio)” value came out at 1.6 MFI ratio.
In the case of B21, the “100 nM FACS (MFI Ratio)” value came to 3.6 MFI ratio.
B22: the “100 nM FACS (MFI Ratio)” value stood at 66.4 MFI ratio.
